“Also recorded” adds a separate entry of the source. Like-named read-outs stand apart in the source and are kept apart here.
How the values were obtained:
hypertension = details: enalapril 20 mg per day; three-month study; cited from earlier work
[1] = tested on: unilateral ureteral ligation in Sprague-Dawley rats; details: cited from earlier work; for renal blood flow (RBF): during UUO; for interstitial inflammation, fibrogenesis / renal (tubulointerstitial) fibrosis: OP-1 100 or 300 μg/kg, first 5 days after obstruction, compared with enalapril
[2] = tested on: streptozotocin diabetic Sprague-Dawley rats; assay type: in vivo; details: preliminary / unpublished studies
[3] = tested on: alloxan-induced diabetic Sprague-Dawley rats; test: Alloxan-induced diabetic nephropathy model; assay type: in vivo, rat; details: for proteinuria level (in words) / serum creatinine level (in words): 12 weeks of treatment; for proteinuria level / serum creatinine level: 12 weeks; for proteinuria level: diabetic about 180; for serum creatinine level: diabetic about 115
Experimental: Similar to streptozotocin, alloxan kills pancreatic β cells and induces type I diabetes (for review, see Cheta et al. (1998) J Pediatr Endocrinol Metab 11: 11-9). Alloxan is also widely used to induce experimental diabetic nephropathy in animals (FIG. 25). Adult female Sprague-Dawley rats (weighing 200-250 g) were intraperitoneally injected with alloxan (70 mg/kg body weight) to induce hyperglycemia. Renal arteries were clamped just prior to injection to prevent direct nephrotoxicity, and then clamps were removed 5 minutes after injection. At week 16 when renal function declined, animals were treated with OP-1 (10 μg/kg body weight, 3×/week, or 30 μg/kg body weight, 1×/week), enalapril (100 mg/L in drinking water) or the combination of OP-1 and enalapril. Control animals without alloxan treatment were handled in all other ways like treated animals. The treatment duration was 12 weeks. All rats were sacrificed after […].

[4] = tested on: streptozotocin-induced diabetic Sprague-Dawley rats; test: Streptozotocin-induced diabetic nephropathy model (Example 3); assay type: in vivo, rat; details: for proteinuria level: OP-1 30 and 100 μg/kg, enalapril 50 and 100 mg/L, or combination, diabetic about 140 mg/day
Experimental: Streptozotocin kills pancreatic β cells and induces type I diabetes (for review, see Cheta et al. (1998) J Pediatr Endocrinol Metab 11:11-9). It is widely used to induce experimental diabetic nephropathy in animals (see FIG. 22). Adult female Sprague-Dawley rats (weighing 200-250 g) were intraperitoneally injected with streptozotocin (60 mg/kg body weight) to induce hyperglycemia. Hyperglycemic rats then received daily injections of insulin to maintain blood glucose between 200-400 mg/dL. At week 16 when renal function declined, animals were treated weekly with OP-1 (10, 30 or 100 μg/kg body weight), enalapril (50 or 100 mg/L in drinking water) or a combination of OP-1 and enalapril. Control animals without streptozotocin treatment were handled in all other ways like treated animals. Animals were sacrificed at week 32 post-streptozotocin treatment.

[5] = tested on: unilateral ureteral ligation in Sprague-Dawley rats; test: Unilateral Ureteral Obstruction (UUO) renal fibrosis model; assay type: in vivo, rat; details: for loss of medullary tissue in the kidney: untreated about 24%
From the text: This UUO model was employed essentially as described (Moller, et al. (1984) Virchows Arch 402: 209-237, the entire contents of which are incorporated herein by reference). Sprague-Dawley rats (about 250 g) underwent either a sham operation (ureter manipulated but not ligated) or unilateral ureteral ligation. Two ligatures, 5 mm apart, were placed in the upper two-thirds of the ureter over a section of polyethylene tubing placed around the ureter (see FIG. 17). The suture tied to obstruct the ureter was removed along with the tubing at day 5, relieving the obstruction. […] Uremia is avoided by the function of the contralateral kidney, which undergoes hypertrophy and hyperplasia as the obstructed kidney is destroyed. The renal injury of UUO is mediated in part through stimulation of renal angiotensin II production, which activates type-1 A-II Receptor and the downsteam TGF-β in a cascade of events culminating in tubulointerstitial inflammation and fibrosis. Inhibition of angiotensin II production by ACE inhibitors (or inhibition of A-II receptors) decreases expansion of the renal interstitium associated with fibrosis.
The effect of OP-1 on Renal fibrosis has been published (Hruska, et al. (2000) Am J Physiol Renal Physiol 279:F130-43, incorporated herein by reference), and a summarization is as follows. […] Additional effects of OP-1 have been observed in this rat UUO model.

[6] = solubility of mature OP-1 with casein; assay type: physicochemical; details: addition of 0.2% casein; mature active form of OP-1
From the text: Association of the mature morphogen dimer with a morphogen pro domain results in the pro form of the morphogen which typically is more soluble in physiological solutions than the corresponding mature form. In fact, endogenous morphogens are thought to be transported (e.g., secreted and circulated) in the mammalian body in this form. This soluble form of the protein can be obtained from culture medium of morphogen-secreting mammalian cells, e.g., cells transfected with nucleic acid encoding and competent to express the morphogen. Alternatively, a soluble species can be formulated by complexing the mature, morphogenically active polypeptide dimer (or an active fragment thereof) with a morphogen pro domain polypeptide or a solubility-enhancing fragment thereof. Solubility-enhancing pro domain fragments can be any N-terminal, C-terminal or internal fragment of the pro region of a member of the morphogen family that complexes with the mature polypeptide dimer to enhance stability and/or dissolubility of the resulting noncovalent or covalent complex. Typically, useful fragments are those cleaved at the proteolytic site Arg-Xaa-Xaa-Arg (SEQ ID NO: 30). A detailed description of soluble complex forms of morphogenic proteins, including how to make, test and use them, is described in WO 94/03600 (PCT US 93/07189). […]

## CCOC(=O)[C@H](CCc1ccccc1)N[C@@H](C)C(=O)N1CCC[C@H]1C(=O)O [enalapril, N-(1-ethoxycarbonyl-3-phenylpropyl)-L-ananyl-L-proline, reference compound]
hypertension
  decrease in diastolic blood pressure: 7.2 mm Hg
  decrease in systolic blood pressure: 8.2 mm Hg
[1]; UUO rats
  tubular atrophy: an effect not shared with ACEI enalapril
[1]
  renal blood flow (RBF): also stimulated RBF
[2]
  Enalapril response: dose and route of administration compared: no difference in the Enalapril response between 5 and 20 mg/kg; also recorded: equally effective as more arduous means of administering Enalapril
[3]
  proteinuria level (in words): reduces the proteinuria level; also recorded: reduce the preteinuria level
  serum creatinine level (in words): decreases the serum creatinine level
[3]; listed as elalapril
  serum creatinine level (in words): reduces the serum creatinine level at a lesser degree
[3]; enalapril 100 mg/L drinking water alone, or combination of OP-1 and enalapril
  proteinuria level: ~140 mg/dL/24 hr
[4]
  proteinuria level: almost normal level; also recorded: significantly reduced the proteinuria level

B1: OP-1: osteogenic protein-1 (OP-1, also known as BMP-7), morphogen of the OP/BMP family; OP-1 used interchangeably with sBMP-7 (protein)
chain: STGSKQRSQNRSKTPKNQEALRMANVAENSSSDQRQACKKHELYVSFRDLGWQDWIIAPEGYAAYYCEGECAFPLNSYMNATNHAIVQTLVHFINPETVPKPCCAPTQLNAISVLYFDDSSNVILKKYRNMVVRACGCH
[5]; OP-1 at 100 μg/kg
  loss of medullary tissue in the kidney: about 16%
[5]; OP-1 at 300 μg/kg
  loss of medullary tissue in the kidney: about 13%
[5]; UUO rats
  loss of medullary tissue / medullary necrosis (in words): reduces tubular atrophy and medullary necrosis; also recorded: significantly reduced the loss of medullary tissue
[6]
  increase in solubility: 80%
[1]
  interstitial inflammation, fibrogenesis / renal (tubulointerstitial) fibrosis: prevented interstitial inflammation and fibrogenesis; also recorded: more effective in preventing tubulointerstitial fibrosis and in preserving renal function; also recorded: reduces renal fibrosis
  renal blood flow (RBF): preserved renal blood flow
[1]; listed as OP-1/BMP-7
  interstitial inflammation, fibrogenesis / renal (tubulointerstitial) fibrosis: Inhibits renal fibrosis
[1]; UUO rats
  epithelial cell apoptosis produced by UUO: blocked the stimulation of epithelial cell apoptosis
  tubular atrophy: prevention of tubular atrophy; also recorded: reduces tubular atrophy
  tubular epithelial disruption: inhibited tubular epithelial disruption
[3]
  proteinuria level (in words): reduces the proteinuria level; also recorded: reduce the preteinuria level
  serum creatinine level (in words): decreases the serum creatinine level; also recorded: dramatically reduces the serum creatinine level
[3]; OP-1 10 μg/kg 3×/week
  serum creatinine level: about 65 μmole/L
  proteinuria level: about 80 mg/dL/24 hr
[3]; OP-1 30 μg/kg 1×/week
  serum creatinine level: ~55 µmol/L
  proteinuria level: ~110 mg/dL/24 hr
[4]; OP-1 100 μg/kg weekly, weeks 16-32, 32-week diabetic animals about 0.38
  mean GFR: about 0.7 ml/min/100 g body weight
[4]
  proteinuria level: almost normal level; also recorded: reduces proteinuria; also recorded: significantly reduced the proteinuria level
[4]; weeks 16-32 treatment
  glomerular filtration rate (in words): significantly increased the glomerular filtration rate; also recorded: increases the glomerular filtration rate

Reference: patent US20050272649A1, “Conjoint administration of morphogens and ACE inhibitors in treatment of chronic renal failure” (priority 2002, published 2005)
